Measured values published in the supplement of paper PMC7877785.
± gives the uncertainty stated by the source.

Experiment: self-splicing fitness, log relative to wild type (ln ratio); higher = more splicing; Tetrahymena group I intron in knt gene, E. coli kanamycin selection, DiMSum; sequences stand for … in CUCUCU…GGAGGGAAAAGUUAUCAGGCAUGCACCUGGUAGCUAGUCUUUAAACCAAUAGAUUGCAUCGGUUUAAAAGGCAAGACCGUCAAAUUGCGGGAAAGGGGUCAACAGCCGUUCAGUACCAAGUCUCAGGGGAAACUUUGAGAUGGCCUUGCAAAGGGUAUGGUAAUAAGCUGACGGACAUGGUCCUAACCACGCAGCCAAGUCCUAAGUCAACAGAUCUUCUGUUGAUAUGGAUGCAGUUCACAGACUAAAUGUCGGUCGGGGAAGAUGUAUUCUUCUCAUAAGAUAUAGUCGGACCUCUCCUUAAUGGGAGCUAGCGGAUGAAGUGAUGCAACACUGGAGCCGCUGGGAACUAAUUUGUAUGCGAAAGUAUAUUGAUUAGUUUUGGAGUACUCGUGGUCG
How it was run: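 Colonies from six replicate transformations of E. coli BL21(DE3) were pooled and amplicon-sequenced on an Illumina HiSeq 2500. The library placed an intron with all eight P1ex-region nucleotides randomised inside the knt kanamycin-resistance gene on pET-22b(+), and cells grew overnight at 37°C or 30°C on LB agar with or without 25 μg/mL kanamycin (plus 100 μg/mL carbenicillin, 50 μM IPTG, 0.2% rhamnose). Fitness is the DiMSum error-weighted combination of wild-type-normalised replicate fold changes, kanamycin versus none.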

| Sequence | self-splicing fitness (ln) (30 °C) | self-splicing fitness (ln) (37 °C) |
| --- | --- | --- |
| GCCGAGCAAUAUUACGUGUU | -2.22 ± 0.088 | -1.66 ± 0.1 |
| UUGCAGCAAUAUUACGGCGC | -1.8 ± 0.24 | -1.84 ± 0.31 |
| GCUCAGCAAUAUUACGCGAU | -2.55 ± 0.15 | -1.51 ± 0.14 |
| CUCUAGCAAUAUUACGCUCC |  | -1.03 ± 0.36 |
| UAACAGCAAUAUUACGUCGG | -0.858 ± 0.066 | -0.53 ± 0.08 |
| GAUUAGCAAUAUUACGAGAG | -3.5 ± 0.25 | -1.83 ± 0.18 |
| UUAGAGCAAUAUUACGGGUC | -3.07 ± 0.18 | -1.69 ± 0.22 |
| GCGUAGCAAUAUUACGCCUG | -4.08 ± 0.42 | -3.13 ± 0.37 |
| GUCAAGCAAUAUUACGUAUU | -2.98 ± 0.12 | -1.84 ± 0.1 |
| AACGAGCAAUAUUACGGCGU | -1.84 ± 0.098 | -0.572 ± 0.088 |
| CCCGAGCAAUAUUACGUUUG | -4.07 ± 0.23 | -2.07 ± 0.14 |
| UGGAAGCAAUAUUACGGGGA | -2.19 ± 0.15 | -2.16 ± 0.16 |
| GUAGAGCAAUAUUACGCAGA |  | -1.92 ± 0.32 |
| CGCCAGCAAUAUUACGACUC | -3.02 ± 0.22 | -2.21 ± 0.25 |
| CCGCAGCAAUAUUACGACCG | -0.576 ± 0.074 | 0.229 ± 0.11 |
| UUAAAGCAAUAUUACGAUUC | -1.07 ± 0.1 | -0.514 ± 0.11 |
| CCUGAGCAAUAUUACGCCAC | -3.2 ± 0.45 | -1.35 ± 0.36 |

| Sequence | self-splicing fitness (ln) (30 °C) | self-splicing fitness (ln) (37 °C) |
| --- | --- | --- |
| UGCCAGCAAUAUUACGGCAA | -1.4 ± 0.079 | -1.52 ± 0.085 |
| UCGCAGCAAUAUUACGGAGU | -2.32 ± 0.21 | -1.92 ± 0.23 |
| UACUAGCAAUAUUACGAAGC | -2.06 ± 0.38 | -3.04 ± 0.43 |
| GGGGAGCAAUAUUACGGCGA | -2.4 ± 0.26 | -1.81 ± 0.24 |
| ACCAAGCAAUAUUACGGCGA | -0.805 ± 0.064 | -0.254 ± 0.072 |
| AGUAAGCAAUAUUACGAGCA | -0.223 ± 0.1 | -0.349 ± 0.11 |
| AAUGAGCAAUAUUACGGGCU | -2.51 ± 0.18 | -2.21 ± 0.46 |
| CCCCAGCAAUAUUACGUCUC | -3.78 ± 0.16 | -3.61 ± 0.19 |
| UCCAAGCAAUAUUACGCUUC | -3.36 ± 0.15 | -4.24 ± 0.2 |
| UUACAGCAAUAUUACGGAAG | -3 ± 0.13 | -2.05 ± 0.14 |
| ACCAAGCAAUAUUACGGCCG | -0.944 ± 0.086 | -0.259 ± 0.11 |
| AAGGAGCAAUAUUACGACCG | -2.16 ± 0.29 |  |
| GCCUAGCAAUAUUACGAGGU | -3.07 ± 0.18 | -2.9 ± 0.23 |
| GAACAGCAAUAUUACGCGAA | -0.881 ± 0.086 | -0.124 ± 0.12 |
| GCAGAGCAAUAUUACGGAUA | -1.48 ± 0.32 | -2.92 ± 0.4 |
| CGGUAGCAAUAUUACGACGC | -1.39 ± 0.16 | -0.431 ± 0.2 |
| UUGCAGCAAUAUUACGCGCA | -1.84 ± 0.14 | -0.231 ± 0.18 |
